The target in this assay is mTOR recombinant protein (Origene #TP320457) (UniProt P42345 1-2549). The assay can be described thus: pull-down; GST-Tanc2 proteins (full-length, N, C) immobilised on glutathione agarose beads, incubated with mTOR recombinant protein (0.5 µg) or Deptor protein in RIPA buffer for 2 h at 4 °C; washed three times; Coomassie staining or immunoblot. As to conditions: both partners purified. A general note: Immunoblotting shows a protein as a band on a membrane.

B1: GST-Tanc2 (full-length) (natural protein)
chain: not shown
notes: Tanc2, human, aa 1-1990, subcloned from p3XFlag-Tanc2 (aa 1-1990) into pGEX-6P-1; Kept on the glutathione beads as bait; also called purified Tanc2 protein; pGST-Tanc2 (aa 1-1990); source: E. coli BL-21 (DE3), purified on glutathione sepharose 4B beads
For the molecule B1, the binding result is recorded as “binds”.

B2: GST-Tanc2-N (aa 1-1358) (domain or fragment)
chain: not shown
notes: Tanc2, human, aa 1-1358, in pGEX-6P-1; also called N-terminal region of purified Tanc2; pGST-Tanc2-N; source: E. coli BL-21 (DE3), purified on glutathione sepharose 4B beads
B2: the binding result is given as “binds”.

B3: GST-Tanc2-C (aa 1359-1990) (domain or fragment)
chain: REIQRLLLRVEEECRQMQQPQQPPPPPQPQQQLPEEAEPEPQHEDIYSVQDIFEEEYLEQDVENVSIGLQTEARPSQGLPVIQSPPSSPPHRDSAYISSSPLGSHQVFDFRSSSSVGSPTRQTYQSTSPALSPTHQNSHYRPSPPHTSPAHQGGSYRFSPPPVGGQGKEYPSPPPSPLRRGPQYRASPPAESMSVYRSQSGSPVRYQQETSVSQLPGRPKSPLSKMAQRPYQMPQLPVAVPQQGLRLQPAKAQIVRSNQPSPAVHSSTVIPTGAYGQVAHSMASKYQSSQGDIGVSQSRLVYQGSIGGIVGDGRPVQHVQASLSAGAICQHGGLTKEDLPQRPSSAYRGGVRYSQTPQIGRSQSASYYPVCHSKLDLERSSSQLGSPDVSHLIRRPISVNPNEIKPHPPTPRPLLHSQSVGLRFSPSSNSISSTSNLTPTFRPSSSIQQMEIPLKPAYERSCDELSPVSPTQGGYPSEPTRSRTTPFMGIIDKTARTQQYPHLHQQNRTWAVSSVDTVLSPTSPGNLPQPESFSPPSSISNIAFYNKTNNAQNGHLLEDDYYSPHGMLANGSRGDLLERVSQASSYPDVKVARTLPVAQAYQDNLYRQLSRDSRQGQTSPIKPKRPFVESNV
notes: Tanc2, human, aa 1359-1990, in pGEX-6P-1; also called C-terminal region of purified Tanc2; pGST-Tanc2-C; source: E. coli BL-21 (DE3), purified on glutathione sepharose 4B beads
Turning to B3, the binding result is “binds”.

Values taken from publication PMC8113471, “Tanc2-mediated mTOR inhibition balances mTORC1/2 signaling in the developing mouse brain and human neurons” (Nature Communications, 2021).
